JP2018108089A (dated 2018)

B1: TP-2G6 (Fab, V domains shown)
VH: QVQLQQSGPGLVKPSQTLSLTCAISGDSVSSSSAAWSWIRQSPGRGLEWLGIIYYRSKWYNDYAVSVKSRITINPDTSKNQFSLQLNSVTPEDTAVYYCARHSMVGFDVWGQGTLVTVSS
VL: DIVLTQSPATLSLSPGERATLSCRASQYVTSSYLAWYQQKPGQAPRLLIYGSSRATGVPARFSGSGSGTDFTLTISSLEPEDFATYYCQQYSSSPITFGQGTKVEIKR
notes: Human Fab (HuCAL Gold, E. coli TG1); also called 2G6-Fab
B2: 2G6-IgG (antibody, V domains shown)
VH: B1 VH
VL: B1 VL
notes: Chimeric IgG: variable regions of TP-2G6 on mouse IgG1 constant regions, expressed in HKB11 cells; also called IgG-2G6; TP-2G6 after conversion to IgG
B3: TP-2A8 (Fab, V domains shown)
VH: QVQLVESGGGLVQPGGSLRLSCAASGFTFRSYGMSWVRQAPGKGLEWVSSIRGSSSSTYYADSVKGRFTISRDNSKNTLYLQMNSLRAEDTAVYYCARKYRYWFDYWGQGTLVTVSS
VL: DIELTQPPSVSVAPGQTARISCSGDNLRNYYAHWYQQKPGQAPVVVIYYDNNRPSGIPERFSGSNSGNTATLTISGTQAEDEADYYCQSWDDGVPVFGGGTKLTVLG
notes: Human Fab (HuCAL Gold, E. coli TG1); also called Fab-2A8; TP-2A8-Fab
B4: TP-4B7 (Fab, V domains shown)
VH: QVQLQQSGPGLVKPSQTLSLTCAISGDSVSSNSAAWSWIRQSPGRGLEWLGIIYKRSKWYNDYAVSVKSRITINPDTSKNQFSLQLNSVTPEDTAVYYCARWHSDKHWGFDYWGQGTLVTVSS
VL: DIVMTQSPLSLPVTPGEPASISCRSSQSLVFSDGNTYLNWYLQKPGQSPQLLIYKGSNRASGVPDRFSGSGSGTDFTLKISRVEAEDVGVYYCQQYDSYPLTFGQGTKVEIKR
notes: Human Fab (HuCAL Gold, E. coli TG1)

Legend:
[1] = biological target: T1, mouse tissue factor pathway inhibitor (TFPI) (mouse, UniProt O54819 29-289, limits assumed); test: ELISA on coated mouse TFPI
T1 construct: Bought protein; also called mouse TFPI; mTFPI
T1 sequence (looked up): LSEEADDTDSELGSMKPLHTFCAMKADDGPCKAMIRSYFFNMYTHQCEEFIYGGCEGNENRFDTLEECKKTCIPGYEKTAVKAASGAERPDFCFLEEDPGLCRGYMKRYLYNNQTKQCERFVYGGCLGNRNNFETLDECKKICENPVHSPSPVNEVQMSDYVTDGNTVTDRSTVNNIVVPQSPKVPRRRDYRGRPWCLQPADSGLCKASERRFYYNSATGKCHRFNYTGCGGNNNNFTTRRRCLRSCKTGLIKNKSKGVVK

[2] = biological target: T2, human tissue factor pathway inhibitor (TFPI) (human, UniProt P10646 29-304, limits assumed); test: ELISA on coated human TFPI
T2 construct: Bought protein; also called human TFPI; hTFPI
T2 sequence (looked up): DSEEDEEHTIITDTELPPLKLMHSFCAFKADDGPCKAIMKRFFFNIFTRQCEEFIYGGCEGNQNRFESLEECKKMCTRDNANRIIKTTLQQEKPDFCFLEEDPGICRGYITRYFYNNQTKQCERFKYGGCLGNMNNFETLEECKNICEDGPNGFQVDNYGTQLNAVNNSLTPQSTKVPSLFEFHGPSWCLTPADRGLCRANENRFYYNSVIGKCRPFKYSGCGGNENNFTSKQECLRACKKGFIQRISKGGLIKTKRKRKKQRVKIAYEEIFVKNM

[3] = biological target: T2, human tissue factor pathway inhibitor …; test: ELISA on coated human TFPI, IgG against Fab
[4] = biological target: T1, mouse tissue factor pathway inhibitor …; test: ELISA on coated mouse TFPI, IgG against Fab
[5] = biological target: T2, human tissue factor pathway inhibitor …; test: ELISA, Fab from bacterial lysate on coated human TFPI

Binder	EC50 [1]	EC50 [2]	fold improvement of EC50 against 2G6-Fab [3]	fold improvement of EC50 against 2G6-Fab [4]	binding result [5]
B1	5.18 nM	0.48 nM			
B2	0.51 nM	0.22 nM	2 fold	10 fold	
B3					binds
B4					binds
